# Laboratory results from patent US20190119358A1.
# *1 amine or outer side, *2 acyl side, *3 side chain or, on linkers, in order; H or OH if unused. Bridges are numbered along the chain shown (N, C = ends). Where no end group is shown, it is not given here. [ ]: non-standard residue; d: D form. The star is where a group is joined. Trp(7-aza) = N[C@@H](Cc1c[nH]c2ncccc12)C(=O)O; NMePhe(4-F) = CN[C@@H](Cc1ccc(F)cc1)C(=O)O; ivDde = CC(C)CC(=C1C(=O)CC(C)(C)CC1=O)*; mXylylene = c1cc(C[*:1])cc(C[*:2])c1; NMeY = CN[C@@H](Cc1ccc(O)cc1)C(=O)O; dPhg = N[C@@H](C(=O)O)c1ccccc1; NMeK = CN[C@@H](CCCCN)C(=O)O; Phg = N[C@H](C(=O)O)c1ccccc1; Tle = CC(C)(C)[C@H](N)C(=O)O; NMeS = CN[C@@H](CO)C(=O)O; NMeA = CN[C@@H](C)C(=O)O; Orn = NCCC[C@H](N)C(=O)O; Pra = C#CC[C@H](N)C(=O)O; Nva = CCC[C@H](N)C(=O)O; Dap = NC[C@H](N)C(=O)O; PEG2 = NCCOCCOCCC(=O)O; AEEA = NCCOCCOCC(=O)O; Acryloyl = C=CC(=O)*; Ava = NCCCCC(=O)O; Sar = CNCC(=O)O
# B1: R4124 (peptide)
# peptide: cyclo([PEG2]Y[Tle]KH[NMeA][Phg][Trp(7-aza)]Y[NMePhe(4-F)][Sar])
# SMILES: C[C@H]1C(=O)N[C@@H](c2ccccc2)C(=O)N[C@@H](Cc2c[nH]c3ncccc23)C(=O)N[C@@H](Cc2ccc(O)cc2)C(=O)N(C)[C@@H](Cc2ccc(F)cc2)C(=O)N(C)CC(=O)NCCOCCOCCC(=O)N[C@@H](Cc2ccc(O)cc2)C(=O)N[C@@H](C(C)(C)C)C(=O)N[C@@H](CCCCN)C(=O)N[C@@H](Cc2c[nH]cn2)C(=O)N1C
# B2: R4123 (peptide)
# peptide: Ac-[Nva]CY[Tle]AK(Acryloyl)[NMeA][Phg][Trp(7-aza)]Y[NMePhe(4-F)][Sar]C-NH2
# modifications: linker 2-13 via mXylylene
# SMILES: C=CC(=O)NCCCC[C@@H]1NC(=O)[C@H](C)NC(=O)[C@H](C(C)(C)C)NC(=O)[C@H](Cc2ccc(O)cc2)NC(=O)[C@@H](NC(=O)[C@H](CCC)NC(C)=O)CSCc2cccc(c2)CSC[C@@H](C(N)=O)NC(=O)CN(C)C(=O)[C@H](Cc2ccc(F)cc2)N(C)C(=O)[C@H](Cc2ccc(O)cc2)NC(=O)[C@H](Cc2c[nH]c3ncccc23)NC(=O)[C@H](c2ccccc2)NC(=O)[C@H](C)N(C)C1=O
# B3: R4127 (peptide)
# peptide: Ac-[Nva]CY[Tle]KH[NMeA][Phg][Trp(7-aza)]Y[NMePhe(4-F)][Sar]CGGGCVIM-NH2
# modifications: linker 2-13 via mXylylene
# SMILES: CCC[C@H](NC(C)=O)C(=O)N[C@H]1CSCc2cccc(c2)CSC[C@@H](C(=O)NCC(=O)NCC(=O)NCC(=O)N[C@@H](CS)C(=O)N[C@H](C(=O)N[C@H](C(=O)N[C@@H](CCSC)C(N)=O)[C@@H](C)CC)C(C)C)NC(=O)CN(C)C(=O)[C@H](Cc2ccc(F)cc2)N(C)C(=O)[C@H](Cc2ccc(O)cc2)NC(=O)[C@H](Cc2c[nH]c3ncccc23)NC(=O)[C@H](c2ccccc2)NC(=O)[C@H](C)N(C)C(=O)[C@H](Cc2c[nH]cn2)NC(=O)[C@H](CCCCN)NC(=O)[C@H](C(C)(C)C)NC(=O)[C@H](Cc2ccc(O)cc2)NC1=O
# B4: R4132 (peptide)
# peptide: Ac-[Nva]CY[Tle]KH[NMeS][Phg][Trp(7-aza)]Y[NMePhe(4-F)][Sar]C-NH2
# modifications: linker 2-13 via mXylylene
# SMILES: CCC[C@H](NC(C)=O)C(=O)N[C@H]1CSCc2cccc(c2)CSC[C@@H](C(N)=O)NC(=O)CN(C)C(=O)[C@H](Cc2ccc(F)cc2)N(C)C(=O)[C@H](Cc2ccc(O)cc2)NC(=O)[C@H](Cc2c[nH]c3ncccc23)NC(=O)[C@H](c2ccccc2)NC(=O)[C@H](CO)N(C)C(=O)[C@H](Cc2c[nH]cn2)NC(=O)[C@H](CCCCN)NC(=O)[C@H](C(C)(C)C)NC(=O)[C@H](Cc2ccc(O)cc2)NC1=O
# B5: R4122 (peptide)
# peptide: Ac-[Nva]CY[Tle]A[Orn](Acryloyl)[NMeA][Phg][Trp(7-aza)]Y[NMePhe(4-F)][Sar]C-NH2
# modifications: linker 2-13 via mXylylene
# SMILES: C=CC(=O)NCCC[C@@H]1NC(=O)[C@H](C)NC(=O)[C@H](C(C)(C)C)NC(=O)[C@H](Cc2ccc(O)cc2)NC(=O)[C@@H](NC(=O)[C@H](CCC)NC(C)=O)CSCc2cccc(c2)CSC[C@@H](C(N)=O)NC(=O)CN(C)C(=O)[C@H](Cc2ccc(F)cc2)N(C)C(=O)[C@H](Cc2ccc(O)cc2)NC(=O)[C@H](Cc2c[nH]c3ncccc23)NC(=O)[C@H](c2ccccc2)NC(=O)[C@H](C)N(C)C1=O
# B6: R4121 (peptide)
# peptide: Ac-[Nva]CY[Tle]KH[NMeA][dPhg][Trp(7-aza)]Y[NMePhe(4-F)][NMeA]C-NH2
# modifications: linker 2-13 via mXylylene
# SMILES: CCC[C@H](NC(C)=O)C(=O)N[C@H]1CSCc2cccc(c2)CSC[C@@H](C(N)=O)NC(=O)[C@H](C)N(C)C(=O)[C@H](Cc2ccc(F)cc2)N(C)C(=O)[C@H](Cc2ccc(O)cc2)NC(=O)[C@H](Cc2c[nH]c3ncccc23)NC(=O)[C@@H](c2ccccc2)NC(=O)[C@H](C)N(C)C(=O)[C@H](Cc2c[nH]cn2)NC(=O)[C@H](CCCCN)NC(=O)[C@H](C(C)(C)C)NC(=O)[C@H](Cc2ccc(O)cc2)NC1=O
# B7: R4128 (peptide)
# peptide: cyclo([Ava]Y[Tle]KH[NMeA][Phg][Trp(7-aza)]Y[NMePhe(4-F)][Sar][Pra])
# SMILES: C#CC[C@@H]1NC(=O)CN(C)C(=O)[C@H](Cc2ccc(F)cc2)N(C)C(=O)[C@H](Cc2ccc(O)cc2)NC(=O)[C@H](Cc2c[nH]c3ncccc23)NC(=O)[C@H](c2ccccc2)NC(=O)[C@H](C)N(C)C(=O)[C@H](Cc2c[nH]cn2)NC(=O)[C@H](CCCCN)NC(=O)[C@H](C(C)(C)C)NC(=O)[C@H](Cc2ccc(O)cc2)NC(=O)CCCCNC1=O
# B8: R4130 (peptide)
# peptide: cyclo([AEEA]Y[Tle]KH[NMeA][Phg][Trp(7-aza)]Y[NMePhe(4-F)][Sar][Pra])
# SMILES: C#CC[C@@H]1NC(=O)CN(C)C(=O)[C@H](Cc2ccc(F)cc2)N(C)C(=O)[C@H](Cc2ccc(O)cc2)NC(=O)[C@H](Cc2c[nH]c3ncccc23)NC(=O)[C@H](c2ccccc2)NC(=O)[C@H](C)N(C)C(=O)[C@H](Cc2c[nH]cn2)NC(=O)[C@H](CCCCN)NC(=O)[C@H](C(C)(C)C)NC(=O)[C@H](Cc2ccc(O)cc2)NC(=O)COCCOCCNC1=O
# B9: R4120 (peptide)
# peptide: Ac-[Nva]CY[Tle]KH[NMeA][Phg][Trp(7-aza)]Y[NMePhe(4-F)][Sar]CGGGCAIL-NH2
# modifications: linker 2-13 via mXylylene
# SMILES: CCC[C@H](NC(C)=O)C(=O)N[C@H]1CSCc2cccc(c2)CSC[C@@H](C(=O)NCC(=O)NCC(=O)NCC(=O)N[C@@H](CS)C(=O)N[C@@H](C)C(=O)N[C@H](C(=O)N[C@@H](CC(C)C)C(N)=O)[C@@H](C)CC)NC(=O)CN(C)C(=O)[C@H](Cc2ccc(F)cc2)N(C)C(=O)[C@H](Cc2ccc(O)cc2)NC(=O)[C@H](Cc2c[nH]c3ncccc23)NC(=O)[C@H](c2ccccc2)NC(=O)[C@H](C)N(C)C(=O)[C@H](Cc2c[nH]cn2)NC(=O)[C@H](CCCCN)NC(=O)[C@H](C(C)(C)C)NC(=O)[C@H](Cc2ccc(O)cc2)NC1=O
# B10: R4136 (peptide)
# peptide: Ac-[Nva]CY[Tle]A[Dap](Acryloyl)[NMeA][Phg][Trp(7-aza)]Y[NMePhe(4-F)][Sar]C-NH2
# modifications: linker 2-13 via mXylylene
# SMILES: C=CC(=O)NC[C@@H]1NC(=O)[C@H](C)NC(=O)[C@H](C(C)(C)C)NC(=O)[C@H](Cc2ccc(O)cc2)NC(=O)[C@@H](NC(=O)[C@H](CCC)NC(C)=O)CSCc2cccc(c2)CSC[C@@H](C(N)=O)NC(=O)CN(C)C(=O)[C@H](Cc2ccc(F)cc2)N(C)C(=O)[C@H](Cc2ccc(O)cc2)NC(=O)[C@H](Cc2c[nH]c3ncccc23)NC(=O)[C@H](c2ccccc2)NC(=O)[C@H](C)N(C)C1=O
# B11: R4125 (peptide)
# peptide: Ac-[Nva]CY[Tle]AH[NMeK][Phg][Trp(7-aza)]Y[NMePhe(4-F)][Sar]C-NH2
# modifications: linker 2-13 via mXylylene
# SMILES: CCC[C@H](NC(C)=O)C(=O)N[C@H]1CSCc2cccc(c2)CSC[C@@H](C(N)=O)NC(=O)CN(C)C(=O)[C@H](Cc2ccc(F)cc2)N(C)C(=O)[C@H](Cc2ccc(O)cc2)NC(=O)[C@H](Cc2c[nH]c3ncccc23)NC(=O)[C@H](c2ccccc2)NC(=O)[C@H](CCCCN)N(C)C(=O)[C@H](Cc2c[nH]cn2)NC(=O)[C@H](C)NC(=O)[C@H](C(C)(C)C)NC(=O)[C@H](Cc2ccc(O)cc2)NC1=O
# B12: R4133 (peptide)
# peptide: Ac-[Nva]CY[Tle]AH[NMeK](Acryloyl)[Phg][Trp(7-aza)]Y[NMePhe(4-F)][Sar]C-NH2
# modifications: linker 2-13 via mXylylene
# SMILES: C=CC(=O)NCCCC[C@H]1C(=O)N[C@@H](c2ccccc2)C(=O)N[C@@H](Cc2c[nH]c3ncccc23)C(=O)N[C@@H](Cc2ccc(O)cc2)C(=O)N(C)[C@@H](Cc2ccc(F)cc2)C(=O)N(C)CC(=O)N[C@H](C(N)=O)CSCc2cccc(c2)CSC[C@H](NC(=O)[C@H](CCC)NC(C)=O)C(=O)N[C@@H](Cc2ccc(O)cc2)C(=O)N[C@@H](C(C)(C)C)C(=O)N[C@@H](C)C(=O)N[C@@H](Cc2c[nH]cn2)C(=O)N1C
# B13: R4126 (peptide)
# peptide: Ac-[Nva]CY[Tle]KA[NMeA][Phg][Trp(7-aza)]Y[NMePhe(4-F)][Sar]C-NH2
# modifications: linker 2-13 via mXylylene
# SMILES: CCC[C@H](NC(C)=O)C(=O)N[C@H]1CSCc2cccc(c2)CSC[C@@H](C(N)=O)NC(=O)CN(C)C(=O)[C@H](Cc2ccc(F)cc2)N(C)C(=O)[C@H](Cc2ccc(O)cc2)NC(=O)[C@H](Cc2c[nH]c3ncccc23)NC(=O)[C@H](c2ccccc2)NC(=O)[C@H](C)N(C)C(=O)[C@H](C)NC(=O)[C@H](CCCCN)NC(=O)[C@H](C(C)(C)C)NC(=O)[C@H](Cc2ccc(O)cc2)NC1=O
# Biological target: GMPPNP-loaded H-Ras or GTP-loaded K-Ras
# Test: FP competition, displacement of probe R4007 from Ras
row,Binder,IC50
1,B1,88.4 nM
2,B2,85 nM
3,B3,148 nM
4,B4,281 nM
5,B5,77.1 nM
6,B6,73 nM
7,Ac-[Nva]CY[Tle]K(ivDde)H[NMeA][Phg][Trp(7-aza)]Y[NMePhe(4-F)][Sar]C (linker 2-13 via m‑xylylene) [R4135],364 nM
8,Ac-[Nva]C[NMeY][Tle]KH[NMeA][Phg][Trp(7-aza)]Y[NMePhe(4-F)][Sar]C[dS][dA]K[Cys(StBu)]VIM (linker 2-13 via mXylylene) [R4129],227 nM
9,B7,215 nM
10,B8,268 nM
11,Ac-[Nva]CY[Tle]K(4‑(dimethylamino)benzoyl)H[NMeA][Phg][Trp(7-aza)]Y[NMePhe(4-F)][Sar]C-NH2 (linker 2-13 via mXylylene) [R4134],346 nM
12,B9,65.7 nM
13,B10,392 nM
14,B11,110 nM
15,Ac-[Nva]CY[Tle]KH[NMeA][Phg][Trp(7-aza)]Y[NMePhe(4-F)][Sar]CGGGCVIM (linker 2-13 via mXylylene) [R4131],278 nM
16,B12,342 nM
17,B13,127 nM
